# Measured values reported in patent US20240352102A1.
# Values joined by “and” are separate entries in the source; they are usually repeats but may differ in a detail not shown here. Equal values may be shown once. Read-outs that look alike come from different tables or passages of the source.
# Experiments:
# Peptide_060 [1] = target: T1, Peptide_060; test: peptide microarray
# T1 sequence (peptide): LKHQPGGGKVQIINK
# Peptide_061 [2] = target: T2, Peptide_061; test: peptide microarray
# T2 sequence (peptide): PGGGKVQIINKKLDL
# Peptide_051 = target: T3, Peptide_051; test: peptide microarray
# T3 sequence (peptide): RTPPKSPSSAKSRLQ
# Peptide_060 [3] = target: T1, Peptide_060; test: peptide microarray; remark: listed apart in the source
# Peptide_061 [4] = target: T2, Peptide_061; test: peptide microarray; remark: listed apart in the source
# Peptide_060 [5] = target: T1, Peptide_060; test: peptide microarray; remark: listed apart in the source
# [6] = target: biotinylated a/B tubulin dimers; test: SPR, biotinylated tubulin dimers as probe on a streptavidin chip, tau in solution
Substance,fluorescence intensity (Peptide_060 [1]),fluorescence intensity (Peptide_060 [5]),further results
RD4 (antibody),722,–,fluorescence intensity (Peptide_061 [2]): 10700; fluorescence intensity (Peptide_051): 163; fluorescence intensity (Peptide_060 [3]): 738; fluorescence intensity (Peptide_061 [4]): 21000
tau1 (antibody),3040 and 1780,–,–
MC1 (antibody),770 and 1100,–,–
TNT1 (antibody),–,925 and 797,–
T14 (antibody),1010,–,fluorescence intensity (Peptide_060 [3]): 840
TOC1 (antibody),1580 and 1790,–,–
ALZ50 (antibody),2600,3070,–
Recombinant human tau isoform 1N4R (from UniProt P10636 1-412),–,–,Kd [6]: 39.8 nM
T46 (antibody),1650 and 844,–,fluorescence intensity (Peptide_061 [2]): 3020
TNT2 (antibody),–,771 and 1024,–
